Assay results from US20030096355A1 (published 2003).

Assays:
[1] = target: T1, human TNFα (amino acids 82-233, Genbank accession no. CAA26669) (human, UniProt P01375 82-233); experiment: SPR, Biacore 2000, 25° C; ymkz5-receptor immobilized on CM5 chip, ligand injected
T1 construct: range 82-233; Expressed in E. coli
Description: (§1) Binding studies were performed to determine if various TNF ligand family members are ligands for the ymkz5-receptor. The only TNF ligand which bound to the ymkz5-receptor was murine TRAIL. The binding studies, based on surface plasmon resonance, were carried out with the automated, high throughput Biacore 2000 system at 25° C. according to the manufacturer's instructions (Biacore, Uppsula, Sweden) as follows:
(§2) The receptor was immobilized on a CM5 research grade amine coupling chip (Biacore) by placing 40 μg/ml of recombinant ymkz5-receptor diluted in HEPES buffered saline (HBS-P; Biacore) at pH 4.5 on the chip. The ligands were diluted in HSP-B buffer containing 10 μg/ml BSA and 4 mg/ml dextran to block nonspecific binding sites. The ligand samples were injected over the receptors at concentrations ranging from 2 nM to 100 nM. The chips were regenerated between ligand injections by washing 2 times for 3 minutes in 25 mM CAPS, 1 M NaCl pH 10.5.
(§3) The TNF ligands tested were: human flag TRAIL (amino acids 95-281, Genbank accession no. AAC50332), murine flag TRAIL (amino acids 99-291, Genbank accession no. NP 033451), murine Fc TRAIL, human OPGL ligand (amino acids 159-318), murine OPGL ligand (amino acids 159-316), human TNFα (amino acids 82-233, Genbank accession no. CAA26669), and murine TNFα (amino acids 82-233, Genbank accession no. CAA68530). The extracellular and […] portions of the ligands were recombinantly expressed in E.coli. Specifically, the denoted amino acids for each ligand indicate the portion of the ligand expressed recombinantly. Additionally, commercially available human Fas ligand (Alexis Biochemicals, San Diego, Calif.) was also tested.. Human DR5Fc, a known TRAIL receptor, was used as a control. Results of the assay were determined by detecting the change in mass on the chip as measured by changes in […] on the chip as indicated as resonance units.

[2] = target: T2, murine OPGL ligand (amino acids 159-316) (murine, UniProt O35235 159-316); experiment: as above
T2 construct: range 159-316; Expressed in E. coli
T2 sequence (looked up): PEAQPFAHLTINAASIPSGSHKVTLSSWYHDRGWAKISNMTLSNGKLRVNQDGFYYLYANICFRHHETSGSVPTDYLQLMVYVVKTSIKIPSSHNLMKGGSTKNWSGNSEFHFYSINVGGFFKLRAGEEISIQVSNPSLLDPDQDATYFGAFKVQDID
Description: as §1, §2, §3

[3] = target: T3, human Fas ligand (Alexis Biochemicals) (human, UniProt P48023 103-281, limits assumed); experiment: as above
T3 construct: Bought; construct not described
T3 sequence (looked up): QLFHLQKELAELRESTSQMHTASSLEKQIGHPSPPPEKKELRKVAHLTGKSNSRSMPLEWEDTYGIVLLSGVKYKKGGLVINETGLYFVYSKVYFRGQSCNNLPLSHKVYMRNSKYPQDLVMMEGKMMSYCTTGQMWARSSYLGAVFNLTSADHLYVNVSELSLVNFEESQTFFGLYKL
Description: as §1, §2, §3

[4] = target: T4, murine TNFα (amino acids 82-233, Genbank accession no. CAA68530) (murine, UniProt P06804 82-233); experiment: as above
T4 construct: range 82-233; Expressed in E. coli
T4 sequence (looked up): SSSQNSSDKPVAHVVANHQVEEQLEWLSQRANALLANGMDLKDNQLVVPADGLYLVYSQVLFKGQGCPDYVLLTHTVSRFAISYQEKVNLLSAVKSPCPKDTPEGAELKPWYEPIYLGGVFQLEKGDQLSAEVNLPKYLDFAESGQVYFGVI
Description: as §1, §2, §3

[5] = target: T5, human OPGL ligand (amino acids 159-318) (human, UniProt O14788 159-317); experiment: as above
T5 construct: range 159-318; Expressed in E. coli; The printed range may run past the end of the UniProt entry
T5 sequence (looked up): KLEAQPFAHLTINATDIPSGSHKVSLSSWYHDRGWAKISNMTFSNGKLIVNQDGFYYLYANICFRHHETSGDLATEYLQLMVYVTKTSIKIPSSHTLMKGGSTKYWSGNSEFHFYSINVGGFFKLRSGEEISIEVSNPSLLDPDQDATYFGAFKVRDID
Description: as §1, §2, §3

[6] = target: T6, human flag TRAIL (amino acids 95-281, Genbank accession no. AAC50332) (human, UniProt P50591 95-281); experiment: as above
T6 construct: range 95-281; Expressed in E. coli; not shown: flag tag
Description: as §1, §2, §3

[7] = target: T7, active murine TRAIL (murine, UniProt P50592 99-291); experiment: SPR, Biacore 2000, 25° C; ymkz5-receptor amine-coupled on CM5 chip, ligand injected at 2 nM to 100 nM; receptor on the chip; active (bioactive) murine TRAIL as ligand
T7 construct: The result is told only for 'active murine TRAIL which was bioactive in cell culture assays'; The construct (flag-tagged 99-291 or Fc fusion) is not tied to the KD; also called murine flag TRAIL; murine Fc TRAIL
T7 sequence (looked up): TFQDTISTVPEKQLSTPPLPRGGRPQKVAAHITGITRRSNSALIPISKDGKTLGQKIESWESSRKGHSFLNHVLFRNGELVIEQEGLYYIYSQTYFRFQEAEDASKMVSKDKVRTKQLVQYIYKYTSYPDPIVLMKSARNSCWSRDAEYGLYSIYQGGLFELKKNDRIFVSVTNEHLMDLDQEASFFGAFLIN
Description: as §1
The receptor was immobilized on a CM5 research grade amine coupling chip (Biacore) by placing 40 μg/ml of recombinant ymkz5-receptor diluted in HEPES buffered saline (HBS-P; Biacore) at pH 4.5 on the chip. The ligands were diluted in HSP-B buffer containing 10 μg/ml BSA and 4 mg/ml dextran to block nonspecific binding sites. […]
The TNF ligands tested were: human flag TRAIL (amino acids 95-281, Genbank accession no. AAC50332), murine flag TRAIL (amino acids 99-291, Genbank accession no. NP 033451), murine Fc TRAIL, human OPGL ligand (amino acids 159-318), murine OPGL ligand (amino acids 159-316), human TNFα (amino acids 82-233, Genbank accession no. CAA26669), and murine TNFα (amino acids 82-233, Genbank accession no. CAA68530). […] Results of the assay were determined by detecting the change in mass on the chip as measured by changes in […] on the chip as indicated as resonance units.

T6 sequence (P50591 95-281 limits assumed): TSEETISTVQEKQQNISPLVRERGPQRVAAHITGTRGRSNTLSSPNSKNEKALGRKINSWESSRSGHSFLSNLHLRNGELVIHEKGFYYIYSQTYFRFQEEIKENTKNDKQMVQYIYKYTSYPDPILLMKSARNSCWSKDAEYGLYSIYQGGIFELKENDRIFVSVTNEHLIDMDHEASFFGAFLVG
T1 sequence (P01375 82-233 limits assumed): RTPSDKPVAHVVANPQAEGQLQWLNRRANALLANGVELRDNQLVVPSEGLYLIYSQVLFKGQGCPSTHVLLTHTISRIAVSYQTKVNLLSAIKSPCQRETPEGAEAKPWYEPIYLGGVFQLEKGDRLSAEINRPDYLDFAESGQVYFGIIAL

B1: recombinant ymkz5-receptor (receptor)
chain: MPESYSFNCPDGEYQSNDVCCKTCPSGTFVKAPCKIPHTQGQCEKCHPGTFTGKDNGLHDCELCSTCDKDQNMVADCSATSDRKCECQIGLYYYDPKFPESCRPCTKCPQGIPVLQECNSTANTVC
- binding result [1]: no binding
- binding result [2]: no binding
- binding result [3]: no binding
- binding result [4]: no binding
- binding result [5]: no binding
- binding result [6]: no binding
- Kd [7]: 20.8 nM
